# In publication PMC6315623:
# Target: BS69 MYND domain (residues 427-602) fused to a B42 activation domain (UniProt Q15326)
# Assay: yeast two-hybrid (β-galactosidase activity)
# Details: n = 3; parent: est. 1; read off a plot
# Sequence of BS69 MYND domain (residues 427-602) fused to a B42 activation domain (Q15326 427-602): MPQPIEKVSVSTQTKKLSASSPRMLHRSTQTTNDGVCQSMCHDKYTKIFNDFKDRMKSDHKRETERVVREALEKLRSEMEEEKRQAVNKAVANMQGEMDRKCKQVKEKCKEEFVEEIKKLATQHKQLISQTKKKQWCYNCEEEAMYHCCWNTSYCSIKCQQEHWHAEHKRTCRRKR
row,Substance,response (% of HAdV-A12 positive control)
1,"HAdV-D9 E1A PXLXP motif fragment, wildtype, LexA DBD fusion I9V",1
2,"HAdV-D9 E1A PXLXP motif fragment, wildtype, LexA DBD fusion T3P",59
3,"HAdV-D9 E1A PXLXP motif fragment, wildtype, LexA DBD fusion P10C",1.5
4,"HAdV-D9 E1A PXLXP motif fragment, wildtype, LexA DBD fusion T5V",1
